Data on one substance can be found in publication PMC9213739, “Substrates and Loaded Iron Ions Relative Position Influence the Catalytic Characteristics of the Metalloenzymes Angelica archangelica Flavone Synthase I and Camellia sinensis Flavonol Synthase” (Frontiers in Pharmacology, 2022).

In the data set the test system is T1, COc1ccc([C@@H]2CC(=O)c3c(O)cc(O)cc3O2)cc1O.
T1 construct: synthetic gene in pET-28a(+) (NcoI/XhoI), expressed in E. coli BL21(DE3); 365 residues
Briefly: UPLC-MS product formation, Lineweaver-Burk. It is filed as biochemical, Angelica archangelica. To be noted: diosmetin formation (main product), Tris-HCl pH 7.5, 23 °C, 1 h, 5 mM 2-mercaptoethanol, 1 mM NADPH, 'separated protein', purification not described. An excerpt: UPLC-MS product formation, Lineweaver-Burk on […]

Chain of AnFNS I (Angelica archangelica) (chain, as listed by the source): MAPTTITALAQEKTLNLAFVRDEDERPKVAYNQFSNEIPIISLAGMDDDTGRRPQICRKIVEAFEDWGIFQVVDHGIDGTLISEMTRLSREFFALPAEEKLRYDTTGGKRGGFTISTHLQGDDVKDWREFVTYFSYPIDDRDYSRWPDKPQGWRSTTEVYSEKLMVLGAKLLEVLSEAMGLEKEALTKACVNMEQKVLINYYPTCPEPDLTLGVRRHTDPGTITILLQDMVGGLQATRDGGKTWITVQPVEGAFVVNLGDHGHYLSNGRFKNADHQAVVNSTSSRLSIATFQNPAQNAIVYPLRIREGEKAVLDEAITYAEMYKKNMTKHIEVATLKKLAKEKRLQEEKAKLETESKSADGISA

As usually defined, the Km is the concentration of substrate that gives half-maximal velocity. A word on the Vmax: it is the top rate of the reaction or transport when substrate is in excess. The term kcat denotes the maximal rate divided by the concentration of active sites. What is called kcat/Km is the second-order rate constant that governs catalysis at low substrate concentration. Regarding AnFNS I (Angelica archangelica), the Km worked out at 59.04 µM, the Vmax worked out at 0.0366 µmol/min/mg, the kcat came to 0.0249 s⁻¹ and the kcat/Km was determined as 423 M⁻¹ s⁻¹.
